# Reference: patent publication US20100086958A1, “NOVEL ENZYME” (priority 2008, published 2010)
# Assays:
# Type in all cases: biochemical
# [1] = Steady state kinetics for NADP^+ (FDH-catalysed formate oxidation)
# Procedure: (§1) BcenFDH1 (Bsp184FDH) and BspFDH2 (Bsp383FDH) catalyzed oxidation of formate to CO2 was monitored by UV/Vis spectrophotometry in a 96-well plate format. A series of eight solutions of formate (0-200 mM) were prepared by successive dilutions of a stock solution of 0.5 M sodium formate in 0.1 M sodium phosphate buffer, pH 7.0. From this series, 170 μL was transferred into wells of the 96-well plate. 10 μL of the FDHs from a stock solution (64.1 μM for BcenFDH1 (Bsp184FDH) and 78.0 μM for BspFDH2 (Bsp383FDH)) were added into each well and equilibrated for 3 min at 30° C. The reaction was initiated by addition of 20 μL of NAD^+ or NADP^+ solution from a freshly prepared stock (10 mM) using an 8-channel pipette. The plate was then immediately placed into the plate reader. The plate was shaken for 5 s to ensure thorough mixing, and then time-based measurements were recorded every 15 s for 10 min. The rate of formate oxidation was calculated using an extinction coefficient of 3.38 mM^−1 (for 200 μL), which was determined using NADH standards. Km and Vmax values were obtained by non-linear regression to the Michaelis-Menten equation (Eq.1 below) using Origin v7 (Microcal Software Inc.).
# Similar procedure were used for determination of Michaelis-Menten parameters for NAD^+ and NADP^+. A series of eight solutions of cofactor (0-75 mM) were prepared by successive dilutions of stock solutions. […] of sodium formate solutions (180 mM in well) were transferred into wells of the 96-well plate. 10 μL of the FDHs from a stock solution (64.1 μM for BcenFDH1 (Bsp184FDH) and 78.0 μM for BspFDH2 (Bsp383FDH)) were added into each well and equilibrated for 3 min at 30° C. The reaction was initiated by addition of 20 μL of NAD^+ or NADP^+ solutions using an 8-channel pipette. The plate was then immediately placed into the plate reader. The plate was shaken for 5 s to ensure thorough mixing, and then time-based measurements were recorded every 15 s for 10 min. The rate of formate oxidation was calculated using an extinction coefficient of 3.38 mM^−1 (for 200 μL), which was determined using NADH standards. Km and Vmax values were obtained by non-linear regression to the Michaelis-Menten equation as before.
# [2] = Steady state kinetics for formate oxidation
# Procedure: as §1
# [3] = Assay of enzyme activity (specific activity, U/mg); conditions: unit = μmol formate oxidized per min in the presence of co-factor; This work
# Procedure: The reaction was initiated by addition of NAD^+. The total volume of the reaction mixture was 1 mL. Specific activity (U/mg enzyme) was defined as number of μmols of product formed per mg enzyme per minute.
# [4] = pH profile determination of FDH-catalysed formate oxidation; conditions: pHs as low 4 or as high as 10.5
# Procedure: The pH profiles for BcenFDH1 (Bsp184FDH) and BspFDH2 (Bsp383FDH) catalyzed formate oxidation, shown in FIG. 13(a) and (b), were investigated by Uv/Vis spectrophotometry in a 96-well plate format. […] From this series, 170 μL was transferred into wells of the 96-well plate. 10 μL of the FDHs from a stock solution solution (64.1 μM for BcenFDH1 (Bsp184FDH) and 78.0 μM for BspFDH2 (Bsp383FDH)) were added into each well and equilibrated for 3 min at 30° C. The reaction was initiated by addition of 20 μL of NAD^+ solution from a freshly prepared stock (10 mM) using an 8-channel pipette. The plate was then immediately placed into the plate reader. The plate was shaken for 5 s to ensure thorough mixing, and then time-based measurements were recorded every 15 s for 10 min. The rate of formate oxidation was calculated using an extinction coefficient of 3.38 mM^−1 (for 200 μL).
# [5] = Cyclohexanone monooxygenase (CHMO)/BspFDH2 coupled Baeyer-Villiger oxidation of cyclohexanone; conditions: coupled with CHMO
# Procedure: By coupling the enzymatic action of BspFDH2 with that of cyclohexanone monooxygenase (CHMO), oxygen C—C bond insertion, a Baeyer-Viliger (B-V) oxidation (see FIG. 4b), converted (>99% conversion, complete within 4 hours) cyclohexanone (3) to caprolactone (4) with NADPH regeneration.
# NADP+ (20 mM, 1 mL) and BspFDH2 (17 mg/mL, 500 μL) were then added and the reaction shaken for 30 minutes at room temperature. After 30 minutes, pre-dialysed CHMO (2 mg/mL, 300 μL) was then added and the reaction shaken at 37° C. The reaction was monitored by GC-MS (Rt˜3.1 minutes). After 4 hr, the reaction mixture was extracted by DCM (3×1 mL) and the combined organic phase was dried and the solvent removed to afford oxepan-2-one (4 above, >99% conversion based on GC chromatogram).
molecule,measurement,setting,value
"Bsp383FDH: wild type FDH from Burkholderia sp 383, Seq ID No: 1, C-terminal His-tagged (protein, listed as Burkholderia sp., C-terminal His tag) MATVLCVLYPDPVDGYPPRYVRDAIPVITHYADGQTAPTPAGPPGFQPGELVGCVSGALGLRGYMEAHGHTLIVTSDKDSPDSEFERRLPEADVVISQPFWPAYLTAERIARAPKLKLALTAGIGSDHVDLDAAARARITVAEVTGSNSISVAEHVVMTTLALVRNYLPSHAIAQQGGWNIADCVSRSYDVEGMHFGTVGAGRIGLAVLRRLKPFGLQLHYTQRHRLDASIEQELGLTYHADAASLASAVDIVNLQIPLYPSTEHLFDAAMIARMKRGAYLINTARAKLVDRDAVVNALTSGHLAGYGGDVWFPQPAPADHPWRTMPFNGMTPHISGTSLSAQARYAAGTLEILQCWFDGKPIRNEYLIVDGGTLAGTGAQSYRLT",Km,"[1]; cofactor NADP^+, 0.18M formate",0.7 ± 0.1 mM
same,kcat NADP^+,"[1]; cofactor NADP^+, 0.18M formate",2.77 ± 0.12 s⁻¹
same,"cofactor preference for NADP^+, times greater than those of known FDHs such as CmetFDH",[1]; relative to CmetFDH,10^6 times
same,kcat,[2]; formate oxidation with NADP^+,6.1148 ± 0.4473 s⁻¹
same,Km,[2]; formate oxidation with NAD^+,50.1 ± 2.69 mM
same,kcat,[2]; formate oxidation with NAD^+,0.772 ± 0.0158 s⁻¹
same,activity with NADP^+,[3],8.64 U/mg
same,activity with NAD^+,[3],1.09 U/mg
same,activity at extreme pH,[4],highly active
same,reaction complete within,[5],≤ 4 h
same,conversion of cyclohexanone to caprolactone (oxepan-2-one),"[5]; NADPH regeneration, GC",> 99%
